Data reported in IntAct's records for PubMed 17462627.

B1: Emerin (Homo sapiens), P50402 (parent)
chain: MDNYADLSDTELTTLLRRYNIPHGPVVGSTRRLYEKKIFEYETQRRRLSPPSSSAASSYSFSDLNSTRGDADMYDLPKKEDALLYQSKGYNDDYYEESYFTTRTYGEPESAGPSRAVRQSVTSFPDADAFHHQVHDDDLLSSSEEECKDRERPMYGRDSAYQSITHYRPVSASRSSLDLSYYPTSSSTSFMSSSSSSSSWLTRRAIRPENRAPGAGLGQDRQVPLWGQLLLFLVFVIVLFFIYHFMQAEEGNPF

Key:
SYNE1, Q8NF91-3 = variants of: B1; settings: with SYNE1, Q8NF91-3
SYNE2, Q8WXH0-3 = variants of: B1; settings: with SYNE2, Q8WXH0-3
Sequence of SYNE2, Q8WXH0-3 (Q8WXH0 6031-6885): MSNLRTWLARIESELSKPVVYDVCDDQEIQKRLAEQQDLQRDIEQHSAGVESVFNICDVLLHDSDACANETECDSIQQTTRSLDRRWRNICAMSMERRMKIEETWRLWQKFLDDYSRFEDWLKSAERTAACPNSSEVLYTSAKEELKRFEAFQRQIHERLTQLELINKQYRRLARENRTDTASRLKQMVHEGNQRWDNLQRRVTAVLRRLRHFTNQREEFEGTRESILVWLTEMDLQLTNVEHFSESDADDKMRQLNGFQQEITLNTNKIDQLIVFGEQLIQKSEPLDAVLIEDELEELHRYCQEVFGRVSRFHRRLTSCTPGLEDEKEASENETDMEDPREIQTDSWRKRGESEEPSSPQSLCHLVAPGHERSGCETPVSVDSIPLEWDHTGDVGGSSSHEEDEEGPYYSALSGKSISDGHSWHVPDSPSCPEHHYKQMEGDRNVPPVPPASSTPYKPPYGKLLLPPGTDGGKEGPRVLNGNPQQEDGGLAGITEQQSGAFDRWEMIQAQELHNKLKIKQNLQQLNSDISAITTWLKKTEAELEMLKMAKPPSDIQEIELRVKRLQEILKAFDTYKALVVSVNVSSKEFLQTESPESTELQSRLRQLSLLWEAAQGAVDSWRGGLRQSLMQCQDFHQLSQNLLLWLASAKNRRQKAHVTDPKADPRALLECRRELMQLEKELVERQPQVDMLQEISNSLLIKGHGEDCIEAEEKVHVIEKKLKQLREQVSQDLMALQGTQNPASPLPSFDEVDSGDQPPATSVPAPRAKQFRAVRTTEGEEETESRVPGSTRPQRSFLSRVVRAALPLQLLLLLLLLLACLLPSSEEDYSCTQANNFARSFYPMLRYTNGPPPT

Sequence of SYNE1, Q8NF91-3 (Q8NF91 other isoform, or with tags, fused parts or gaps): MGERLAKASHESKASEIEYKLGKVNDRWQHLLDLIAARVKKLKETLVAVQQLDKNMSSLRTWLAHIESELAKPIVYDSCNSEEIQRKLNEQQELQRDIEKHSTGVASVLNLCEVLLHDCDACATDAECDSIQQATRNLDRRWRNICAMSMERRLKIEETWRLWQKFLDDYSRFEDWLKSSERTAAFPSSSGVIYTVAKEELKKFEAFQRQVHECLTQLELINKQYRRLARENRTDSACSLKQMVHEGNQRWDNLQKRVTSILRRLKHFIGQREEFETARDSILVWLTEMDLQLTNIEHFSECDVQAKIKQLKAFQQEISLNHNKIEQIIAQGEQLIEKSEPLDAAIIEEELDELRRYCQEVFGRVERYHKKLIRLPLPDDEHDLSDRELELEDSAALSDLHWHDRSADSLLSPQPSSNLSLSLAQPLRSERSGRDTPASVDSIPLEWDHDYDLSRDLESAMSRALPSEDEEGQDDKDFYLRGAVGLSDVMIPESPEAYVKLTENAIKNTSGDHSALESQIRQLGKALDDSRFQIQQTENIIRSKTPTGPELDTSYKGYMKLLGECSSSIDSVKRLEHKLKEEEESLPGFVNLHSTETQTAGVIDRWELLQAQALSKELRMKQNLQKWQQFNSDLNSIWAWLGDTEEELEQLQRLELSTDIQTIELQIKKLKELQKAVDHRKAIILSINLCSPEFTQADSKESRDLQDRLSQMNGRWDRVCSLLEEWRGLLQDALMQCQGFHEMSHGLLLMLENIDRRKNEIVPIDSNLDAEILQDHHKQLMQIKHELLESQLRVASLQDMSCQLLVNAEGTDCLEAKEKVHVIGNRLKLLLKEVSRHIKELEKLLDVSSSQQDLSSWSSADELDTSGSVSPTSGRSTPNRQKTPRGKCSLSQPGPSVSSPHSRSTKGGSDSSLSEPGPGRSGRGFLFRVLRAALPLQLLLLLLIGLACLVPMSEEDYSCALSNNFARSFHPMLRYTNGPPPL

Row | Variant | effect of a mutation on the interaction (SYNE1, Q8NF91-3) | effect of a mutation on the interaction (SYNE2, Q8WXH0-3)
1 | MDNYADLSDTELTTLLRRYNIPHGPVVGSTRRLYEKKIFEYETQRRRLSPPSSSAASSYSFSDLNSTRGDADMYDLPKKEDALLYQSKGYNDDYYEESYFTTRTYGEPESAGPSRAVRQSVTSFPDADAFHHHVHDDDLLSSSEEECKDRERPMYGRDSAYQSITHYRPVSASRSSLDLSYYPTSSSTSFMSSSSSSSSWLTRRAIRPENRAPGAGLGQDRQVPLWGQLLLFLVFVIVLFFIYHFMQAEEGNPF [Q133H] | increasing interaction strength | 
2 | MDNYADLSDTELTTLLRRYNIPHGPVVGSTRRLYEKKIFEYETQRRRLSPPSSSAASSYSFSDLNSTRGDADMYDLPKKEDALLYQSKGYNDDYYEESYFTTRTYGEPESAGPSRAVRQSVTSFPDADAFHHQVHDDDLLSSSEEECKDRERPMYGRDSAYQSITHYRPVSASRSSLDLSYYHTSSSTSFMSSSSSSSSWLTRRAIRPENRAPGAGLGQDRQVPLWGQLLLFLVFVIVLFFIYHFMQAEEGNPF [P183H] | increasing interaction strength | increasing interaction strength
3 | MDNYADLSDTELTTLLRRYNIPHGPVVGSTRRLYEKKIFEYETQRRRLSPPSSSAASSYSFSDLNSTRGDADMYDLPKKEDALLYQSKGYNDDYYEESYFTTRTYGEPESAGPSRAVRQSVTSFPDADAFHHQVHDDDLLSSSEEECKDRERPMYGRDSAYQSITHYRPVSASRSSLDLSYYTTSSSTSFMSSSSSSSSWLTRRAIRPENRAPGAGLGQDRQVPLWGQLLLFLVFVIVLFFIYHFMQAEEGNPF [P183T] | decreasing interaction strength | increasing interaction strength
